Key:
Assay in all cases: Crosslinking/co-immunoprecipitation/mass spectrometry (TMT quantitative proteomics) to identify irisin receptors
Assay type in all cases: binding
[1] = target: T1, MLO-Y4 cell surface proteins (Mus musculus, UniProt G3X9C2); conditions: co-precipitated protein Nccrp1 (FBX50_MOUSE)
T1 construct: endogenous in cells; host or cells: MLO-Y4
T1 sequence (G3X9C2 1-266): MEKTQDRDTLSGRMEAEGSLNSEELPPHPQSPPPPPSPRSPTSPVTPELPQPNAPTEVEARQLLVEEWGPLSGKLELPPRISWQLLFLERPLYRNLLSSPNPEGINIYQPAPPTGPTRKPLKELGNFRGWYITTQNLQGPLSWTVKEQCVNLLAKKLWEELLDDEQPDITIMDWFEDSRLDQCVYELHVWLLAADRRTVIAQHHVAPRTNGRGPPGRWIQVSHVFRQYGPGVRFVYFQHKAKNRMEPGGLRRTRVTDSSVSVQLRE
In short: (§1)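 Mouse MLO-Y4 cells were switched to serum-free FreeStyle medium for 4 h, chilled, then exposed to 10 nM His-tagged irisin (or adipsin as control) for 20 min. Cells were crosslinked with 1.5 mM DTSSP (30 min, ice), and bound proteins were pulled down on Ni-NTA and eluted with 250 mM imidazole. Eluates were separated by SDS-PAGE, trypsin-digested in gel, TMT 6-plex labelled and quantified by MS3-based LC-MS/MS on an Orbitrap Fusion Lumos.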

[2] = target: T2, MLO-Y4 cell surface proteins (Mus musculus, UniProt P39654); conditions: co-precipitated protein Alox15 (LOX15_MOUSE)
T2 construct: endogenous in cells; host or cells: MLO-Y4
T2 sequence (P39654 1-663): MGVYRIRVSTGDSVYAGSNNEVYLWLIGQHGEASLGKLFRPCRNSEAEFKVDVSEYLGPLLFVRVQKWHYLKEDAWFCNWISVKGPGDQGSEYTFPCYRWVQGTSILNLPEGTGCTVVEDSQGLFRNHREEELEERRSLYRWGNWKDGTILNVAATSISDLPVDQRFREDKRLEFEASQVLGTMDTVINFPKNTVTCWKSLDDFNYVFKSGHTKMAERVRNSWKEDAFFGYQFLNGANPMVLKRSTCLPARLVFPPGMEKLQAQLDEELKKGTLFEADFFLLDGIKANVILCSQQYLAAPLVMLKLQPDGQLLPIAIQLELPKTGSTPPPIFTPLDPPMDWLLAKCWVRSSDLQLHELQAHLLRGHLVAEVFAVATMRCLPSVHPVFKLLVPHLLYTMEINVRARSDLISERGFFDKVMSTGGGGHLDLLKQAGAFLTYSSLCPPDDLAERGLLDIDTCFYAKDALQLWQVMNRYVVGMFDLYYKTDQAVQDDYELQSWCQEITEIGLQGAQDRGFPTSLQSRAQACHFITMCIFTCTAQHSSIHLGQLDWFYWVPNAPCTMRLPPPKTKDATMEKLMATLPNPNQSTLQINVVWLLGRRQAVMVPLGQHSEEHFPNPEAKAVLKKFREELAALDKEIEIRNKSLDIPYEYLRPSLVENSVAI
In short: as §1

[3] = target: T3, MLO-Y4 cell surface proteins (Mus musculus, UniProt Q921N7); conditions: co-precipitated protein Tmem70 (TMM70_MOUSE)
T3 construct: endogenous in cells; host or cells: MLO-Y4
T3 sequence (Q921N7 78-253): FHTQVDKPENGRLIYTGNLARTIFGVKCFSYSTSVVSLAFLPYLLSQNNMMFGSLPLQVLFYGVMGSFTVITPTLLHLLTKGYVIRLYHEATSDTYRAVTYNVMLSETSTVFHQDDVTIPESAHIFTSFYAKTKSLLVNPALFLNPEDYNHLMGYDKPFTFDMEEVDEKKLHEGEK
In short: as §1

[4] = target: T4, MLO-Y4 cell surface proteins (Mus musculus, UniProt Q99KR7); conditions: co-precipitated protein Ppif (PPIF_MOUSE)
T4 construct: endogenous in cells; host or cells: MLO-Y4
In short: as §1

T4 sequence (Q99KR7 30-206): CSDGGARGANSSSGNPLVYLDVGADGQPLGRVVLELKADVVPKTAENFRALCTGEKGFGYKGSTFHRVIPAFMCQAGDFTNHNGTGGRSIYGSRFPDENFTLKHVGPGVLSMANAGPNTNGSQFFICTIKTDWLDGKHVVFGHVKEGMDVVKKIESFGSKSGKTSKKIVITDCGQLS

B1: irisin: secreted cleaved form of FNDC5; recombinant human/mouse irisin with C-terminal his tag produced in HEK293 cells (protein)
chain: DSPSAPVNVTVRHLKANSAVVSWDVLEDEVVIGFAISQQKKDVRMLRFIQEVNTTTRSCALWDLEEDTEYIVHVQAISIQGQSPASEPVLFKTPREAEKMASKNKDEVTMKE
modifications: left off: small tags and cut ends
notes: secreted cleaved form of FNDC5; recombinant human/mouse irisin with C-terminal his tag produced in HEK293 cells
TMT signal-to-noise ratio [1]: 0
irisin/adipsin TMT signal-to-noise ratio [1]: 0.000
TMT signal-to-noise ratio [2]: 9.028
irisin/adipsin TMT signal-to-noise ratio [2]: 0.064
TMT signal-to-noise ratio [3]: 49.6598
irisin/adipsin TMT signal-to-noise ratio [3]: 0.562
TMT signal-to-noise ratio [4]: 49.7858
irisin/adipsin TMT signal-to-noise ratio [4]: 0.199
